Results as given in patent US8624002B2, “Prostaglandin E2 binding proteins and uses thereof” (AbbVie, Inc., priority 2008, dated 2014).

Tests used:
[1] = Intrinsic thermodynamic stability by DSC; format: physicochemical; conditions: for Tm1 (° C.): 0.79 mg/mL, pH 6, 10 mM citrate, 10 mM phosphate; for Tm2 (° C.) / Tm3 (° C.): same buffer
Protocol: The thermal stability of the anti-PGE2 antibodies was assessed using a DSC instrument. The DSC instrument used was an automated VP-DSC equipment with Capillary Cell (Microcal, GE Healthcare Ltd./Microcal, Buckinghamshire, UK). Unfolding of molecules was studied applying a 1° C./minute scan rate over a 25° C.-95° C. temperature range for samples at 1 mg/mL. Additional measurement parameters applied were a fitting period of 16 seconds, a pre-scan wait time of 10 minutes, and measurements were performed in none-feedback mode. Per individual measurement, 420 μL of sample/blank were filled into the DSC measurement sample holder, with a plate fill scheme as provided below. The thermograms obtained were fitted to a non two state model to obtain the midpoint temperatures and enthalpies of the different transitions.
(§1) The stability of a series of clones (i.e., anti-PGE2 antibodies) of the parent anti-PGE2 antibody was assessed by using intrinsic thermodynamic clone stability determination using DSC (0.79 mg/mL clone concentration, formulated at pH 6 in a 10 mM citrate, 10 mM phosphate buffer) and by accelerated stability screening (0.79 mg/mL clone concentration, formulated at pH 6 in a 10 mM citrate, 10 mM phosphate buffer, for 7 days at 50° C.) where clone stability was monitored with SEC (Table 15).

[2] = PGE2 competition ELISA, format not stated (biotin-PGE2 or ^3H-PGE2); format: binding; conditions: humanized antibodies table
Protocol: Competition enzyme linked immunosorbent assays were performed to determine prostaglandin binding specificity for antibodies that bind prostaglandin E2, according to at least one of the two following methods.
ELISA plates (Costar 3369, Corning, N.Y.) were coated with 50 μl/well of anti-host Fc IgG (Sigma, St. Louis, Mo.) at 2 μg/ml in PBS (Invitrogen, Carlsbad, Calif.). Following an overnight incubation at 4° C., the plate was blocked with 200 μl Superblock (Pierce #37535, Rockford, Ill.). The IgG samples were diluted to 6 μg/ml in Assay Buffer (10% Superblock in PBS containing 0.05% Surfactamps (Pierce #37535, Rockford, Ill.). The PGE2-biotinamide was diluted to 3 nM in Assay Buffer. A titration curve in Assay Buffer was prepared for the prostaglandins PGA2 (Cayman Chemicals, Ann Arbor, Mich.), PGD2 (Cayman Chemicals, Ann Arbor, Mich.) and PGE2 (Cayman Chemicals, Ann Arbor, Mich.) starting at 300 nM by a 1:10 serial dilution. The reagents were added to tubes at a volume of 50 μl each/tube and preincubated for 1 hour at room temperature. Following the preincubation, the mix was transferred to the blocked plates and allowed to incubate for 1 hour at room temperature. Next, the plates were washed four times with Tween 20-Tris buffered solution (TTBS). Streptavidin polyhrp40 in Assay Buffer (Fitzgerald Industries, Concord, Mass.) at a 1:5000 dilution was then added to the wells and incubated for 45 minutes at room temperature. A final wash step was performed and the plates were developed using a single step TMB system (Sigma #T8665, Sigma, St. Louis, Mo.) and 100 μl/well 2N H2SO4. Plates were read at 450 nm on a Molecular Devices Spectramax plate reader (Sunnyvale, Calif.). […] IC50 number was determined using GraphPad Prism 5 (GraphPad Software, La Jolla, Calif.). The cross reactivity index was then calculated by IC50 of PGE2/IC50 of other prostaglandin(s).
Alternatively, prostaglandin selectivity was determined using a ^3H-PGE2 competition ELISA. Plates were coated with 50 μL/well of 5 μg/ml of goat anti-human IgG (Fc) (Thermo Scientific # 31170, Hudson, N.H.) or goat anti-mouse IgG (Fc) (Thermo Scientific # 31125, Hudson, N.H.) in PBS and incubated overnight at 4° C. The following day plates were flicked and blotted dry. Plates were blocked with 200 μL/well of Superblock (Thermo Scientific # 37515, Hudson, N.H.), 1 hour at room temperature. Plates were flicked and blotted dry. Monoclonal antibodies were diluted to 0.04 μg/ml in PBST (Abbott Bioresearch Center, Worcester, Mass.)/10% Superblock and 50 μL of each was added to each well (2 ng/well) of the pre-blocked ELISA plate and incubated for 1 hour at room temperature. Wells were washed 3 times with PBS/0.1% Tween-20. ^3H-PGE2 (Perkin Elmer # NET-428, Waltham, Mass.) was diluted in PBST/10% Superblock to 6 nM (2× stock). Each prostaglandin (Cayman Chemicals, Ann Arbor, Mich.) was prepared in PBST+10% Superblock at various concentrations ranging from 2000 μM (2× stock) to 0.00004 μM (2×). Equal volumes of the ^3H-PGE2 solution and of each prostaglandin dilution were mixed. Fifty microliters of this mixture was then added to each well of the plate and incubated for 1 hour at room temperature. Wells were washed manually 6 times with PBST/10% Superblock and 50 μL of scintillation fluid (Perkin Elmer # 6013621, Waltham, Mass.) added to each well. Plates were read using a TopCount reader (Perkin Elmer, Waltham, Mass.) with a 5 minute count delay. IC50 number was determined using GraphPad Prism 5 (GraphPad Software, La Jolla, Calif.). The cross reactivity index was then calculated by IC50 of PGE2/IC50 of other prostaglandin(s)
Several antibodies, named 19C9, 4F10 and 15F10 specific for PGE2 were isolated. […] The specificity of these antibodies for PGE2 was further determined by a competition ELISA with various prostaglandins as described in Example 1.B (Table 2). […]

[3] = Biotin-PGE2 ELISA (PGE2-biotinamide binding to captured IgG)
[4] = Accelerated stability screening monitored by SEC; format: physicochemical; conditions: SEC
Protocol: Size exclusion chromatography was used to separate proteins based on size. Proteins are carried in an aqueous mobile phase and through a porous stationary phase resin packed in a column. The retention time in the column is a function of the hydrodynamic size of the protein and the size of the pores in the packed resin bed. Smaller molecules can penetrate into smaller pores in the resin and are retained longer than larger molecules. Upon elution from the column the proteins are detected by UV absorbance. The SEC method used a TSK gel guard (TOSOH Biosciences, Montgomeryville, Pa., cat. no. 08543) and a TSK gel G3000SWxL (TOSOH Biosciences, Montgomeryville, Pa., cat. no. 08541). The mobile phase was 100 mM Na2HPO4, 200 mM Na2SO4, pH 7.0. The flow rate was 0.3 mL/minute. Injection volume was 20 μL of 1 mg/mL sample. The column temperature was room temperature. The autosampler temperature was 2-8° C. The total run time was 50 minutes. The detection was based on UV absorbance at 214 nm wavelength, with band width set at 8 nm, using reference wavelength at 360 nm with band width 100 nm.
as §1

[5] = start of stability study, 0.79 mg/mL, pH 6

Molecule | EC50 [3] [pM] | Tm1 (° C.) [1] [°C] | Tm2 (° C.) [1] [°C] | Tm3 (° C.) [1] [°C] | Cross Reactivity Index (%) PGA2 [2] [%] | Cross Reactivity Index (%) PGD2 [2] [%] | Cross Reactivity Index (%) PGE1 [2] [%] | Aggregate (%) ([4]; 7 days storage at 50° C.) | Fragment (%) ([4]; 7 days storage at 50° C.) | Monomer (%) ([4]; 7 days storage at 50° C.) | Fragment (%) ([4]; start of stability study) | Monomer (%) ([4]; start of stability study) | Aggregate (%) [4, 5] [%]
Hu2B5.8: humanized 2B5-8.0; VH SEQ ID NO 74, VL SEQ ID NO 75 (antibody, V domains shown) VH: EVQLVQSGAEVKKPGASVKVSCKASGYTFTKYWLGWVRQAPGQGLEWMGDIYPGYDYTHYNEKFKDRVTLTTDTSTSTAYMELSSLRSDDTAVYYCARSDGSSTYWGQGTLVTVSS VL: DVLMTQTPLSLPVTPGEPASISCTSSQNIVHSNGNTYLEWYLQKPGQSPQLLIYKVSNRFSGVPDRFSGSGSGTDFTLKISRVEAEDVGVYYCFQVSHVPYTFGGGTKVEIKR | 87 | 72.96 | 75.33 | 82.83 | 0.20 | <0.01 | 8.5 | 2.5144 | 4.184 | 93.3016 | 3.2904 | 94.5969 | 2.1126
Hu2B5.4: humanized 2B5-8.0; VH SEQ ID NO 66, VL SEQ ID NO 67 (antibody, V domains shown) VH: EVQLVQSGAEVKKPGASVKVSCKASGYTFTKYWLGWVRQAPGQGLEWIGDIYPGYDYTHYNEKFKDRATLTVDTSTSTAYMELSSLRSDDTAVYYCARSDGSSTYWGQGTLVTVSS VL: DVLMTQTPLSLPVTPGEPASISCTSSQNIVHSNGNTYLEWYLQKPGQSPQLLIYKVSNRFSGVPDRFSGSGSGTDFTLKISRVEAEDVGVYYCFQVSHVPYTFGGGTKVEIKR | 57 | 71.095 | 72.41 | 82.58 | 0.22 | <0.01 | 14 | 2.1689 | 6.5423 | 91.2889 | 3.2146 | 94.5513 | 2.234

Further molecules by falling EC50 [3], results first:

EC50 [3] [pM] | Molecule | Tm1 (° C.) [1] [°C] | Tm2 (° C.) [1] [°C] | Tm3 (° C.) [1] [°C] | Cross Reactivity Index (%) PGA2 [2] [%] | Cross Reactivity Index (%) PGD2 [2] [%] | Cross Reactivity Index (%) PGE1 [2] [%] | Aggregate (%) ([4]; 7 days storage at 50° C.) | Fragment (%) ([4]; 7 days storage at 50° C.) | Monomer (%) ([4]; 7 days storage at 50° C.) | Fragment (%) ([4]; start of stability study) | Monomer (%) ([4]; start of stability study) | Aggregate (%) [4, 5] [%]
63 | Hu2B5.1: humanized 2B5-8.0; VH SEQ ID NO 60, VL SEQ ID NO 61 (antibody, V domains shown) VH: EVQLVQSGAEVKKPGASVKVSCKASGYTFTKYWLGWVRQAPGQGLEWIGDIYPGYDYTHYNEKFKDRATLTVDTSTSTAYMELRSLRSDDTAVYYCARSDGSSTYWGQGTLVTVSS VL: DVVMTQTPLSLPVTPGEPASISCTSSQNIVHSNGNTYLEWYLQKPGQSPQLLIYKVSNRFSGVPDRFSGSGSGTDFTLKISRVEAEDVGVYYCFQVSHVPYTFGGGTKVEIKR | 72.835 | 75.02 | 82.785 | 0.21 | <0.01 | 16 | 2.5611 | 6.3675 | 91.0715 | 4.4044 | 93.7885 | 1.8071
59 | Hu2B5.3: humanized 2B5-8.0; VH SEQ ID NO 64, VL SEQ ID NO 65 (antibody, V domains shown) VH: EVQLVQSGAEVKKPGASVKVSCKASGYTFTKYWLGWVRQAPGQGLEWIGDIYPGYDYTHYNEKFKDRATLTVDTSTSTAYMELRSLRSDDTAVYYCARSDGSSTYWGQGTLVTVSS VL: DVLMTQTPLSLPVTPGEPASISCTSSQNIVHSNGNTYLEWYLQKPGQSPQLLIYKVSNRFSGVPDRFSGSGSGTDFTLKISRVEAEDVGVYYCFQVSHVPYTFGGGTKVEIKR | 72.67 | 72.96 | 82.67 | 0.18 | <0.01 | 14 | 2.6042 | 5.044 | 92.3518 | 3.6853 | 94.1987 | 2.116
55 | Hu2B5.2: humanized 2B5-8.0; VH SEQ ID NO 62, VL SEQ ID NO 63 (antibody, V domains shown) VH: EVQLVQSGAEVKKPGASVKVSCKASGYTFTKYWLGWVRQAPGQGLEWIGDIYPGYDYTHYNEKFKDRATLTVDTSTSTAYMELSSLRSDDTAVYYCARSDGSSTYWGQGTLVTVSS VL: DVVMTQTPLSLPVTPGEPASISCTSSQNIVHSNGNTYLEWYLQKPGQSPQLLIYKVSNRFSGVPDRFSGSGSGTDFTLKISRVEAEDVGVYYCFQVSHVPYTFGGGTKVEIKR | 72.845 | 75.08 | 82.67 | 0.18 | <0.01 | 14 | 2.1753 | 4.6755 | 93.1491 | 3.3025 | 94.8516 | 1.846
